Usually IC50 stands for the point on the concentration scale where inhibition reaches its midpoint. A high value points to a need for much substance. What is called EC50 is the concentration giving half of the maximal effect. Read a low EC50 as higher potency in that assay. In general, Kd refers to the equilibrium constant for the complex coming apart. Low values mean tighter binding, high ones weaker binding. Usually koff stands for a measure of how fast the partners let go of each other. The term kon denotes the rate constant with which the complex forms.

Results on one molecule are retold here after patent US20210115138A1 (WUXI BIOLOGICS IRELAND, published 2021).

Experiment [1] has as its target T1, mouse PD-1 protein (mouse, UniProt Q02242 25-167, limits assumed).
T1 sequence (looked up): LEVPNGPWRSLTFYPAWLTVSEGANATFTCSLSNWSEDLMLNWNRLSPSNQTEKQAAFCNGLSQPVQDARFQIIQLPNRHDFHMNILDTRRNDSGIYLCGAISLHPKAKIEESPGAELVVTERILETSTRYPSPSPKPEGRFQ
As to the kind of experiment: ELISA, antibody coated on the plate, mouse PD-1 (His tag on the sheet) added at 0.25, 2.5 and 25 nM, OD450. How it is done:
After blocking and washing, various concentrations of mouse PD-1 protein were added to the plates and incubated at room temperature for 1 hour. The plates were then washed and subsequently incubated with HRP-labeled goat anti-mouse IgG antibody for 1 hour. After washing, TMB substrate was added and the color reaction was stopped by 2M HCl. The absorbance at 450 nm was read using a microplate reader.

Experiment [2] addresses T2, human PD-1 on cells (human, UniProt Q15116 25-288).
T2 construct: whole, on cells; also called cell surface human PD-1; PD-1 expressing CHO-S cells
As to the kind of experiment: flow cytometry; competition with mFc-PD-L1 on PD-1 expressing CHO-S cells. How it is done: The mixture was transferred into the 96-well plates seeded with PD-1 expressing CHO-S cells. […] The MFI was evaluated by flow cytometry and analyzed by the software FlowJo.
Background: Flow cytometry measures light scatter and fluorescence of single cells or particles in a stream.

Experiment [3] deals with T3, human CTLA-4 protein (human, UniProt P16410 36-161).
T3 construct: extracellular domain
As to the kind of experiment: ELISA, human CTLA-4 coated at 1 ug/mL, antibody added at 0.67 and 6.7 nM, OD450. How it is done: (§1) Cross-reactivity to human CD4, CTLA-4 or CD28 was measured by ELISA. Plates were coated with human CD4, CTLA-4 or CD28 at 1 μg/mL overnight at 4° C. […] The plates were then washed and subsequently incubated with corresponding secondary antibody for 60 min. After washing, TMB substrate was added and the color reaction was stopped by 2M HCl.
Background: An ELISA detects its analyte on a solid surface through an enzyme-linked reagent.

Experiment [4] concerns the target T2, human PD-1 on cells. As to the kind of experiment: flow cytometry on human PD-1 expressing cells. How it is done:
(§2) MFI of the cells was measured by flow cytometry and analyzed by FlowJo (version 7.6.1).

Experiment [5] has as its target T4, mouse Fc-tagged human LAG-3 protein (human, UniProt P18627 23-450).
T4 construct: extracellular domain; also called mouse Fc-tagged LAG-3 protein; not shown: mouse Fc tag
T4 sequence (looked up): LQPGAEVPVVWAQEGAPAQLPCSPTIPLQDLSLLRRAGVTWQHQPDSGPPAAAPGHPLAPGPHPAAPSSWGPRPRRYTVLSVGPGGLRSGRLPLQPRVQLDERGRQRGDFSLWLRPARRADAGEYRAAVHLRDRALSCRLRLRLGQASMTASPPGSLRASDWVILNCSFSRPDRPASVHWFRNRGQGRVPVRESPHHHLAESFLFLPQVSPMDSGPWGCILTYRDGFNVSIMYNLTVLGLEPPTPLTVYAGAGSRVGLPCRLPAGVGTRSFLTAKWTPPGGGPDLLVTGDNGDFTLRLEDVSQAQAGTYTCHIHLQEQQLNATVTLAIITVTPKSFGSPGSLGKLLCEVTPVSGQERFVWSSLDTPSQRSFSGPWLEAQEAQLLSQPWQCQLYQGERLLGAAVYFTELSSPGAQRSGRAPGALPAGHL
As to the kind of experiment: flow cytometry; blocking of mFc-LAG-3 binding to MHC-II on Raji cells. How it is done:
The mixture was transferred into the 96-well plates seeded with Raji cells which express MHC-II on the surface. […] The MFI was evaluated by flow cytometry and analyzed by the software FlowJo.

Experiment [6] has as its target human CD4 protein (human, UniProt P01730 26-390, limits assumed). As to the kind of experiment: ELISA, human CD4 coated at 1 ug/mL, antibody added at 0.67 and 6.7 nM, OD450. How it is done: as §1
Experiment [7] deals with T5, mouse Fc-tagged human PD-1 protein (human, UniProt Q15116 25-170).
T5 construct: extracellular domain; also called mouse Fc-tagged PD-1 protein; not shown: mouse Fc tag
The experiment in a line: dual-binding ELISA; mFc-PD-1 coated, antibody titrated, detected by His-tagged LAG-3 and anti-His-HRP.

For experiment [8], the target named is T6, His-tagged human PD-1 protein (MW: 40 KD) (human, UniProt Q15116 25-167).
T6 construct: not shown: His tag
The experiment in a line: SPR Biacore 8K; antibody captured on anti-human Fc, His-PD-1 injected. How it is done: Binding affinity of the bispecific antibodies to the antigen were determined by SPR assay using Biacore 8K. PD-1×LAG-3 antibodies were captured on an anti-human IgG Fc antibody immobilized CMS sensor chip (GE).
(§3) The sensorgrams of blank surface and buffer channel were subtracted from the test sensorgrams. The experimental data was fitted by 1:1 model using Langmiur analysis.

For experiment [9], the target named is T7, human LAG-3 on cells (human, UniProt P18627 23-525).
T7 sequence (looked up): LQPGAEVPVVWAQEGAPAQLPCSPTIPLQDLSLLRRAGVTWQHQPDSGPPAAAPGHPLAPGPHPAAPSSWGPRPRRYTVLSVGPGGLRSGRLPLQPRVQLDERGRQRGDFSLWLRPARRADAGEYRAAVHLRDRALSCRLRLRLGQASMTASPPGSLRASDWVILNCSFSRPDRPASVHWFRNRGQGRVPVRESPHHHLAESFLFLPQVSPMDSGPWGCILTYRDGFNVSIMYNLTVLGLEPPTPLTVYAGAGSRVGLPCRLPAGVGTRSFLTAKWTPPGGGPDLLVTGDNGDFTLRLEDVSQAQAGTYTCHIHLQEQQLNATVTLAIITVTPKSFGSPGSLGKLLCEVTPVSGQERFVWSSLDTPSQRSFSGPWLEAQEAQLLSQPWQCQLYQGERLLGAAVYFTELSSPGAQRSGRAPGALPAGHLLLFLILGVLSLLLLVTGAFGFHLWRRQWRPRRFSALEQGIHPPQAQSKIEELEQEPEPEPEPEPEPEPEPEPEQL
As to the kind of experiment: cell-based or functional assay.

Experiment [10] concerns the target T8, Human LAG-3 without tag (human, UniProt P18627 23-450).
T8 construct: extracellular domain; also called untagged LAG-3 ECD protein
T8 sequence (looked up): T4 sequence (looked up)
As to the kind of experiment: SPR; antibody immobilized, untagged human LAG-3 injected, single-cycle kinetics. How it is done:
The chip was regenerated with 10 mM glycine (pH 1.5).
as §3
Background: SPR reads the build-up and loss of mass on a sensor chip optically.

Experiment [11] deals with T7, human LAG-3 on cells. As to the kind of experiment: flow cytometry on human LAG-3 expressing 293F cells. How it is done: as §2
Experiment [12] addresses T4, mouse Fc-tagged human LAG-3 protein. As to the kind of experiment: ELISA; antibody coated, mFc-tagged LAG-3 titrated. How it is done:
The plates were then washed and subsequently incubated with HRP-labeled goat anti-mouse IgG antibody for 1 hour. After washing, TMB substrate was added and the color reaction was stopped by 2M HCl. The absorbance at 450 nm was read using a microplate reader.

Experiment [13] deals with T5, mouse Fc-tagged human PD-1 protein. As to the kind of experiment: ELISA; antibody coated, mFc-tagged PD-1 titrated.
Experiment [14] has as its target T2, human PD-1 on cells. As to the kind of experiment: cell-based or functional assay.
For experiment [15], the target named is T9, cynomolgus PD-1 on cells (cynomolgus, UniProt B0LAJ3 25-288).
T9 construct: also called cell surface cynomolgus PD-1
The experiment in a line: flow cytometry on cynomolgus PD-1 expressing 293F cells. How it is done: (§4) MFI of the cells was measured by flow cytometry and analyzed by FlowJo.

Experiment [16] deals with T10, human CD28 protein (human, UniProt P10747 19-152).
T10 construct: extracellular domain
The experiment in a line: ELISA, human CD28 coated at 1 ug/mL, antibody added at 0.67 and 6.7 nM, OD450. How it is done:
as §1

The target in experiment [17] is T11, cynomolgus LAG-3 on cells (cynomolgus).
T11 construct: whole, on cells; also called cell surface cynomolgus LAG-3
The experiment in a line: flow cytometry on cynomolgus LAG-3 expressing 293F cells. How it is done: as §4

T2 sequence (Q15116 25-288): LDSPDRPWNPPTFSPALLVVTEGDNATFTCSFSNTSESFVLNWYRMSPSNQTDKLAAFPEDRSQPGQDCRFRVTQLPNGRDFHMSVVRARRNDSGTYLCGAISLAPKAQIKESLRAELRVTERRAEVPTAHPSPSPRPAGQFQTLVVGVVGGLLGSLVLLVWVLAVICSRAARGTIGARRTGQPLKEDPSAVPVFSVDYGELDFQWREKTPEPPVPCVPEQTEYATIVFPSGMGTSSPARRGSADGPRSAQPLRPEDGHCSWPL
T6 sequence (Q15116 25-167 limits assumed): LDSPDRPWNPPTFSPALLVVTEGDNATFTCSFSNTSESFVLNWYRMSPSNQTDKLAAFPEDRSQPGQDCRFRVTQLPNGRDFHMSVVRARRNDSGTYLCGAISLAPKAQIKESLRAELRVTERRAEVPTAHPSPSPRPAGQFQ
T5 sequence (Q15116 25-170): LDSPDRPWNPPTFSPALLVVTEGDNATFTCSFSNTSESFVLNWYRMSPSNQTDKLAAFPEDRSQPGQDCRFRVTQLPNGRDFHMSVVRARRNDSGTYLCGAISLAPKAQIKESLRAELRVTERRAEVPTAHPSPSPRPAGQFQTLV
T9 sequence (B0LAJ3 entry or part of it limits assumed): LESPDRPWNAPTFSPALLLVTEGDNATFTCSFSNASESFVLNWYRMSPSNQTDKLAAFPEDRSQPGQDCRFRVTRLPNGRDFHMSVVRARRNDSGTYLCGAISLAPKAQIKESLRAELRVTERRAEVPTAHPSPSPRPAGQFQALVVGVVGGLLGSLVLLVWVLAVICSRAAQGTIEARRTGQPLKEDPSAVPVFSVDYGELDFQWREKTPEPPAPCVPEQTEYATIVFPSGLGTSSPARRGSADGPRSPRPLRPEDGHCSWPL
T3 sequence (P16410 36-161): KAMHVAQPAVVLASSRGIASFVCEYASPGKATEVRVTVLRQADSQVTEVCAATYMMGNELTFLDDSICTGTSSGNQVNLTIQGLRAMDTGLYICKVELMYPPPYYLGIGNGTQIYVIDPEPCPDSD

B1: W365-U6T1.G15-1.uIgG4.SP (bispecific antibody)
heavy: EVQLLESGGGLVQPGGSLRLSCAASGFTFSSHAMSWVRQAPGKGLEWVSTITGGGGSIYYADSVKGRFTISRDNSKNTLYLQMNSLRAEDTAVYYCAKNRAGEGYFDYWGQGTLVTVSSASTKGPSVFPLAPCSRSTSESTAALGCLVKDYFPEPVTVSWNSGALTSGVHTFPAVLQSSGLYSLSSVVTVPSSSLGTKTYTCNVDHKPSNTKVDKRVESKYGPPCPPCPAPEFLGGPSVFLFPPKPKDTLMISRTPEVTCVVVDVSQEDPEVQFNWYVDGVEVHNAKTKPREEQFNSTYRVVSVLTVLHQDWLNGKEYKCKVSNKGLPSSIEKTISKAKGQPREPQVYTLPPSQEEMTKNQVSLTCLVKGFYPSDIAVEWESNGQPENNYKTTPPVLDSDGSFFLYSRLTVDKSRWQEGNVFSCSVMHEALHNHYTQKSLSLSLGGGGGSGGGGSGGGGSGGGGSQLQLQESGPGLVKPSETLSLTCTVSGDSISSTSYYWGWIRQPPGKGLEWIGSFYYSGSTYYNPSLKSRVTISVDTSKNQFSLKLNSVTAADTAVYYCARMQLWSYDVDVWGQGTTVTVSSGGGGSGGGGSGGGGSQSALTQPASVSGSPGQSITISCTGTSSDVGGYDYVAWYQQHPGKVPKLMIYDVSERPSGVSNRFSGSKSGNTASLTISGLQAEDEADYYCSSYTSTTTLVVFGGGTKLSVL
light: SYELTQPLSVSVALGQTARITCGGDNIGNKDVHWYQQKPGQAPVLVIYRDSNRPSGIPEGFSGSNSGNTATLTISRAQAGDEADYYCQVWDSIWVFGGGTKLTVLGQPKAAPSVTLFPPSSEELQANKATLVCLISDFYPGAVTVAWKADSSPVKAGVETTTPSKQSNNKYAASSYLSLTPEQWKSHKSYSCQVTHEGSTVEKTVAPTECS
notes: Anti-PD-1 (W3055-1.153.7) human IgG4 S228P; also called W365-G15
With B1, the binding result is reported as “no binding (tested: 25 nM (mouse PD-1))” in experiment [1], “no binding (tested: 6.7 nM)” in experiment [3], “no binding (tested: 6.7 nM)” in experiment [6] and “no binding (tested: 6.7 nM)” in experiment [16]. In addition, the IC50 in experiment [2] turned out to be 1090 pM; in experiment [5] it was 1680 pM. In addition, the EC50 came to 1340 pM in experiment [4]; 50 pM in experiment [7]; 5880 pM in experiment [11]; 320 pM in experiment [12]; 70 pM in experiment [13]; 310 pM in experiment [15]. For the same molecule, in [17], the EC50 was found to be 20900 pM. The Kd was 2160 pM in experiment [8] and 26.5 pM in experiment [10]. Also, the koff in experiment [8] was 0.000592 s⁻¹; in [10] it was 1.89e-05 s⁻¹. Further, the kon is 275000 M⁻¹ s⁻¹ in [8] and 714000 M⁻¹ s⁻¹ in experiment [10]. In addition, the “EC50 of IL-2 pathways enhancement (luciferase reporter)” value in [9] was 320 pM. Also, in [14], the “EC50 of NFAT pathways enhancement (luciferase reporter)” value came out at 410 pM.
